In US20210284706A1 (published 2021):

Biological target: OMCP
Test: method not stated

B1: human NKG2D (Example 21) (receptor)
chain: NSLFNQEVQIPLTESYCGPCPKNWICYKNNCYQFFDESKNWYESQASCMSQNASLLKVYSKEDQDLLKLVKSYHWMGLVHIPTNGSWQWEDGSILSPNLLTIIEMQKGDCALYASSFKGYIENCSTPNTYICMQRTV
  Kd: 0.1 nM
